# Measurements from the supplement of paper PMC11246515.
# ± gives the standard deviation of the averaged measurements.
# Test: total protein half-life in vivo (active degradation + dilution); higher = more stable protein
# [1] = E. coli NCM3722 delta-clpP delta-lon delta-hslV, growth: N-lim chemostat, doubling time 6 h
# [2] = E. coli NCM3722 delta-hslV, growth: N-lim chemostat, doubling time 6 h
# [3] = E. coli NCM3722 delta-lon, growth: N-lim chemostat, doubling time 6 h
# [4] = E. coli NCM3722 delta-smpB, growth: N-lim chemostat, doubling time 6 h
# [5] = wild type E. coli NCM3722, growth: C-lim chemostat, doubling time 3 h
# [6] = wild type E. coli NCM3722, growth: C-lim chemostat, doubling time 6 h
# [7] = wild type E. coli NCM3722, growth: C-lim chemostat, doubling time 12 h
# [8] = wild type E. coli NCM3722, growth: N-lim chemostat, doubling time 6 h
# [9] = wild type E. coli NCM3722, growth: N-lim chemostat, doubling time 12 h
# [10] = wild type E. coli NCM3722, growth: P-lim chemostat, doubling time 6 h
# [11] = wild type E. coli NCM3722, growth: P-lim chemostat, doubling time 12 h
# [12] = E. coli NCM3722 delta-clpP, growth: N-lim chemostat, doubling time 6 h
Sequence,total protein half-life in vivo [1] [h],total protein half-life in vivo [2] [h],total protein half-life in vivo [3] [h],total protein half-life in vivo [4] [h],total protein half-life in vivo [5] [h],total protein half-life in vivo [6] [h],total protein half-life in vivo [7] [h],total protein half-life in vivo [8] [h],total protein half-life in vivo [9] [h],total protein half-life in vivo [10] [h],total protein half-life in vivo [11] [h],total protein half-life in vivo [12] [h]
MRKGCFGLVSLVLLLLVGCRSHPEIPVNDEQSLVMESSLLAAGISAEKPFLSTSDIQPSASSTLYNERQEPVTVHYRFYWYDARGLEMHPLERPRSVTIPAHSAVTLYGSANFLGAHKVRLYLYL,5.4 ± 0.33,5.89 ± 0.42,5.86 ± 0.36,5.34 ± 0.22,2.84,5.52,9.893 ± 0.025,5.33,10.1,5.79,11.8 ± 0.32,
MRKIALILAMLLIPCVSFAGLLGSSSSTTPVSKEYKQQLMGSPVYIQIFKEERTLDLYVKMGEQYQLLDSYKICKYSGGLGPKQRQGDFKSPEGFYSVQRNQLKPDSRYYKAINIGFPNAYDRAHGYEGKYLMIHGDCVSIGCYAMTNQGIDEIFQFVTGALVFGQPSVQVSIYPFRMTDANMKRHKYSNFKDFWEQLKPGYDYFEQTRKPPTVSVVNGRYVVSKPLSHEVVQPQLASNYTLPEAK [P0AA99],0.797,0.844,0.64,0.689 ± 0.063,0.313 ± 0.18,1.37,1.81,0.909 ± 0.048,1.54 ± 0.73,0.858 ± 0.34,1.45 ± 0.56,0.657 ± 0.077
MRKIIHVDMDCFFAAVEMRDNPALRDIPIAIGGSRERRGVISTANYPARKFGVRSAMPTGMALKLCPHLTLLPGRFDAYKEASNHIREIFSRYTSRIEPLSLDEAYLDVTDSVHCHGSATLIAQEIRQTIFNELQLTASAGVAPVKFLAKIASDMNKPNGQFVITPAEVPAFLQTLPLAKIPGVGKVSAAKLEAMGLRTCGDVQKCDLVMLLKRFGKFGRILWERSQGIDERDVNSERLRKSVGVERTMAEDIHHWSECEAIIERLYPELERRLAKVKPDLLIARQGVKLKFDDFQQTTQEHVWPRLNKADLIATARKTWDERRGGRGVRLVGLHVTLLDPQMERQLVLGL,4.16 ± 0.15,,,,,,,,,,,
MRKIKGLRWYMIALVTLGTVLGYLTRNTVAAAAPTLMEELNISTQQYSYIIAAYSAAYTVMQPVAGYVLDVLGTKIGYAMFAVLWAVFCGATALAGSWGGLAVARGAVGAAEAAMIPAGLKASSEWFPAKERSIAVGYFNVGSSIGAMIAPPLVVWAIVMHSWQMAFIISGALSFIWAMAWLIFYKHPRDQKHLTDEERDYIINGQEAQHQVSTAKKMSVGQILRNRQFWGIALPRFLAEPAWGTFNAWIPLFMFKVYGFNLKEIAMFAWMPMLFADLGCILGGYLPPLFQRWFGVNLIVSRKMVVTLGAVLMIGPGMIGLFTNPYVAIMLLCIGGFAHQALSGALITLSSDVFGRNEVATANGLTGMSAWLASTLFALVVGALADTIGFSPLFAVLAVFDLLGALVIWTVLQNKPAIEVAQETHNDPAPQH [P0AA78],,,,,,5.93 ± 0.18,9.36 ± 0.82,,,,,
MRKITQAISAVCLLFALNSSAVALASSPSPLNPGTNVARLAEQAPIHWVSVAQIENSLAGRPPMAVGFDIDDTVLFSSPGFWRGKKTFSPESEDYLKNPVFWEKMNNGWDEFSIPKEVARQLIDMHVRRGDAIFFVTGRSPTKTETVSKTLADNFHIPATNMNPVIFAGDKPGQNTKSQWLQDKNIRIFYGDSDNDITAARDVGARGIRILRASNSTYKPLPQAGAFGEEVIVNSEY [P0AE22],6.66 ± 1.4,6.31 ± 0.14,,5.83 ± 0.2,3.637 ± 0.033,,11.7 ± 2.4,5.79 ± 0.22,> 16,6.42 ± 0.61,13.2 ± 0.27,
MRKKIEMSLIKSPANGVVIKRKISDGLKEIVSLKEKILLETTAKIQSIEEKREEKFIQGYYDGYTKGIIDEMDNFIPLISLLCSELEKKRINMINDLKSILLKPSEEVDVFIKIFESWVTKLPSISGPVNLHIPTSFKDKSLEVESYFVDKSIWNVHITFHDDKRFVFFTDQFIAEFSPQEFVDNCEQYLINNHCFSPDKVNEICEQARHYLVEKMFETHSLDMNNSVLASPEDL,,,,,,,,,> 16,,,
MRKLTALFVASTLALGAANLAHAADTTTAAPADAKPMMHHKGKFGPHQDMMFKDLNLTDAQKQQIREIMKGQRDQMKRPPLEERRAMHDIIASDTFDKVKAEAQIAKMEEQRKANMLAHMETQNKIYNILTPEQKKQFNANFEKRLTERPAAKGKMPATAE,,,4.86 ± 2.6,4.4 ± 1.1,2.63,4.54 ± 0.28,8.06 ± 4.6,,1.93,3.86 ± 0.27,6.54 ± 0.43,3.6
MRKQWLGICIAAGMLAACTSDDGQQQTVSVPQPAVCNGPIVEISGADPRFEPLNATANQDYQRDGKSYKIVQDPSRFSQAGLAAIYDAEPGSNLTASGEAFDPTQLTAAHPTLPIPSYARITNLANGRMIVVRINDRGPYGNDRVISLSRAAADRLNTSNNTKVRIDPIIVAQDGSLSGPGMACTTVAKQTYALPAPPDLSGGAGTSSVSGPQGDILPVSNSTLKSEDPTGAPVTSSGFLGAPTTLAPGVLEGSEPTPAPQPVVTAPSTTPATSPAMVTPQAVSQSASGNFMVQVGAVSDQARAQQYQQQLGQKFGVPGRVTQNGAVWRIQLGPFASKAEASTLQQRLQTEAQLQSFITTAQ,5.56 ± 0.12,6.5 ± 0.56,6.29 ± 0.38,5.65 ± 0.12,3.1 ± 0.15,5.89 ± 0.42,,6.17 ± 0.07,13.4 ± 2.2,,12.38 ± 0.038,5.78 ± 0.37
MRLEFSIYRYNPDVDDAPRMQDYTLEADEGRDMMLLDALIQLKEKDPSLSFRRSCREGVCGSDGLNMNGKNGLACITPISALNQPGKKIVIRPLPGLPVIRDLVVDMGQFYAQYEKIKPYLLNNGQNPPAREHLQMPEQREKLDGLYECILCACCSTSCPSFWWNPDKFIGPAGLLAAYRFLIDSRDTETDSRLDGLSDAFSVFRCHSIMNCVSVCPKGLNPTRAIGHIKSMLLQRNA,6.38 ± 1.4,5.6 ± 0.19,5.16 ± 1.2,5.06 ± 0.28,3.17 ± 0.81,6.28 ± 0.13,11.9 ± 0.33,5.22 ± 0.7,10.7 ± 0.97,5.138 ± 0.038,10.5 ± 0.14,5.1 ± 0.12
